The values that follow come from patent US20150004637A1, “SYSTEMS AND METHODS FOR IMAGING AT HIGH SPATIAL AND/OR TEMPORAL PRECISION” (President and Fellows of Harvard College, priority 2011, published 2015).

Entries after “also recorded” stand apart in the source; their conditions may differ. Like-named read-outs stand apart in the source and are kept apart here.

Common to all, as to format: cell-based
Assay [1] has as its system cultured rat hippocampal neurons. Description: Optical recording of action potentials in cultured neurons. The protocol:
Arch was tested as a voltage indicator in cultured rat hippocampal neurons, using viral delivery (Methods 10-11). […] Individual spikes were accompanied by clearly identifiable increases of whole-field fluorescence (FIG. 11B). Preferentially weighting pixels whose intensity co-varied with the whole-field fluorescence led to an about 74% improvement in SNR (FIG. 11C). This training procedure made no use of the electrical recording. Training the pixel-weighting algorithm on the electrical recording led to a further 5% increase in SNR. (FIG. 11D).
(11) Neuronal cell culture. E18 rat hippocampi were purchased from BrainBits and mechanically dissociated in the presence of 1 mg/mL papain (Worthington) before plating at 5,000 to 30,000 cells per dish on poly-L-lysine and Matrigel-coated (BD Biosciences) glass-bottom dishes. […] Cells were incubated in N+ medium (100 mL Neurobasal medium, 2 mL B27 supplement, 0.5 mM glutamine, 25 micromolar glutamate, penicillin-streptomycin) for 3 hours. An additional 300 microliter virus medium was added to the cells and incubated overnight, then brought to a final volume of 2 mL N+ medium. After two days, cells were fed with 1.5 mL N+ medium. Cells were fed with 1 mL N+ medium without glutamate at 4 DIV, and fed 1 mL every 3-4 days after. Cells were allowed to grow until 10-14 DIV. […]
Whole-cell current clamp recordings were obtained from mature neurons under the same conditions used for HEK cells recordings. Series resistance and pipette capacitance were corrected. Only neurons having resting potentials between −50 and −70 mV were used in the analysis.
(12) Spike sorting. A spike identification algorithm was developed that could be applied either to electrically recorded V(t) or to optically determined VFL(t). The input trace was convolved with a reference spike. Sections of the convolved waveform that crossed a user-defined threshold were identified as putative spikes. Multiple spikes that fell within 10 ms (a consequence of noise-induced glitches near threshold) were clustered and identified as one.

Assay [2] deals with HEK cells. The experiment in a line: Photocurrents under voltage clamp. The note with it: for Photocurrent: HEK cells clamped at V=0, 640 nm, 1800 W/cm^2. The protocol:
Measurements of photocurrents were performed on HEK cells held in voltage clamp at 0 mV while being exposed to brief (200 ms) pulses of illumination at 640 nm at an intensity of 1800 W/cm^2.

Assay [3] concerns cultured mouse hippocampal neurons. The experiment in a line: Optopatch: optical stimulation and recording in neurons. The conditions noted are these: red light 230 W/cm^2, 640 nm. From the text: In another example, a genetic construct termed “Optopatch” was used to provide simultaneous optical stimulation and recording from neurons. One embodiment of the Optopatch construct consisted of a bicistronic vector for co-expression of channelrhopsin 64 (ChR64)-mOrange II and archaerhodopsin 3 (Arch)-eGFP. This construct is depicted in FIG. 18A. The abbreviations used in the figure may be interpreted as follows. ss: Signaling sequence designed to improve the trafficking of Arch to the plasma membrane; Arch: Archaerhodopsin 3; eGFP: Enhanced green fluorescent protein; ER2: Endoplasmic reticulum export motif, designed to improve the trafficking of Arch to the plasma membrane; P2A: porcine teschovirus-1 2A sequence, a ribosomal skip-site leading to expression of two proteins from a single mRNA transcript; ChR64: Channelrhodopsin 64, a blue light-activated ion channel; mOr2: mOrange 2 fluorescent protein. […]
Whole-field illumination with pulses of blue light (20 mW/cm^2, 10 ms, 488 nm, repeated at 10 Hz) led to flashes of red fluorescence (em: 660-760 nm), detected on a high speed EMCCD camera. […] The optically-recorded fluorescence waveform coincided closely with the electrically recorded waveform on a single-trial basis (as shown in FIG. 18C), with a noise in the optically recorded voltage of 1.1 mV at a 1 kHz acquisition rate.

B1: Archaerhodopsin 3 (protein)
chain: MDPIALQAGYDLLGDGRPETLWLGIGTLLMLIGTFYFLVRGWGVTDKDAREYYAVTILVPGIASAAYLSMFFGIGLTEVTVGGEMLDIYYARYADWLFTTPLLLLDLALLAKVDRVTIGTLVGVDALMIVTGLIGALSHTAIARYSWWLFSTICMIVVLYFLATSLRSAAKERGPEVASTFNTLTALVLVLWTAYPILWIIGTEGAGVVGLGIETLLFMVLDVTAKVGFGFILLRSRAILGDTEAPEPSAGADVSAAD
modifications: Halorubrum sodomense
notes: Microbial rhodopsin from Halorubrum sodomense, light-driven proton pump used as fluorescent voltage indicator; experiments used an Arch-eGFP fusion
Take B1: the “optical signal-to-noise ratio of single electrically triggered action potentials” value in assay [1] is reported as “greater than 10”. In assay [1] (10 μM retinal, over 30 minutes, neuron depolarized with CCCP), the “increase in fluorescence after addition of supplemental retinal” value is 30-60%. Further, in assay [1] (2 kHz frame rate, single trial), the “signal-to-noise ratio in the fluorescence (spike amplitude:baseline noise)” value is reported as “about 10.5”. In addition, the “light-induced outward photocurrent in neurons” value in assay [1] (I=1800 W/cm^2, total internal reflection mode) is given as “about 10 pA”. In addition, the “shift of resting potential by photocurrent” value in assay [1] (current-clamp, I=1800 W/cm^2) is recorded as “up to −20 mV”. For the same molecule, the “false-positive rate of spike identification” value in assay [1] (n=269 spikes) was found to be 0.7%. Also, the “spikes correctly identified by spike-finding algorithm” value in assay [1] (n=269 spikes, versus simultaneously recorded membrane potential) is reported as 99.6%. In assay [1] (pixel weights from correlation to electrophysiology data), the “r.m.s. deviation between fluorescence and voltage” value was 4.0 mV. Further, the “r.m.s. deviation of fluorescence from electrophysiology data” value in assay [1] (pixel weights from correlation to whole-field intensity) stood at 4.2 mV; in assay [1] (whole-field fluorescence, single trial, 500 frames/s), 7.3 mV. In addition, the Photocurrent entry in assay [2] is “yes”. The “outward photocurrent induced by imaging laser” value in assay [2] (HEK cells, 640 nm) is 10-20 pA. Besides, the “outward photocurrent mediated by Arch” value in assay [3] (n=6 cells) worked out at 34±7 pA. In addition, the “hyperpolarization of cells by Arch photocurrent” value in assay [3] (n=8 cells) was determined as 6.1±1.1 mV.

B2: Arch D95N: Archaerhodopsin 3 with aspartic acid 95 mutated to asparagine; non-pumping voltage indicator (protein, UniProt P96787 7-258, looked up, variant D95N)
Archaerhodopsin-3: QAGYDLLGDGRPETLWLGIGTLLMLIGTFYFLVRGWGVTDKDAREYYAVTILVPGIASAAYLSMFFGIGLTEVTVGGEMLDIYYARYANWLFTTPLLLLDLALLAKVDRVTIGTLVGVDALMIVTGLIGALSHTAIARYSWWLFSTICMIVVLYFLATSLRSAAKERGPEVASTFNTLTALVLVLWTAYPILWIIGTEGAGVVGLGIETLLFMVLDVTAKVGFGFILLRSRAILGDTEAPEPSAGADVSAAD
As to B2, in assay [1] (I=1800 W/cm^2, λ=640 nm), the “effect of illumination on membrane potential / spiking in neurons” value is recorded as “did not perturb membrane potential; also recorded: no effect of illumination on spiking or resting potential”. Moreover, the “photocurrent / proton pumping (words)” value in assay [2] is “lacked endogenous proton pumping”; in assay [2] (listed as Arch 3 D95N) it was “lacks photoinduced proton pumping”; in assay [2] (listed as D95N), “eliminated the photocurrent”. In addition, the Photocurrent entry in assay [2] is “no”.
